First the molecules themselves.
B1: Azoarcus group I ribozyme (parent)
chain: GUGCCUUGCGCCGGGAAACCACGCAAGGGAUGGUGUCAAAUUCGGCGAAACCUAAGCGCCCGCCCGGGCGUAUGGCAACGCCGAGCCAAGCUUCGGCGCCUGCGCCGAUGAAGGUGUAGAGACUAGACGGCACCCACCUAAGGCAAACGCUAUGGUGAAGGCAUAGUCCAGGGAGUGGCGAAAGUCACACAAACCGG

The data set covers variants of B1. Nature of the data set: reverse-splicing fitness (ratio to wild type); higher = more active; in vitro selection; Mg2+ level not given. The gist of the method:
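An in vitro group I ribozyme library with randomized positions was T7-transcribed and gel-purified. In triplicate, 10 pmol RNA in EPPS pH 7.5 was reacted with 50 pmoles of a 30-nt RNA substrate for 1 h at 37 °C across several added MgCl2 levels (1–48 mM), then stopped with EDTA. Products were reverse transcribed from a substrate-complementary primer, PCR-amplified and sequenced (HiSeq 4000). Fitness is a variant's read proportion after selection over that before, normalised to wild type.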
Take A120C A145C C150A C169U U176C: the reverse-splicing fitness stood at 0.032. The same measure for C82U A111C A120G A145C U176G: 0.00386; for C82G A111U A120G A145G C150U C169A U176A: 0.0158.

In the case of C82G A111U A120C A145U C150G C169U, the reverse-splicing fitness amounted to 0.00954. The same measure for C82U C150U C169U: 0.0129; for C82G A111G A120G C150G C169A: 0.00983; for C82A A120U C150G C169A U176G: 0.00312. With A111G A120G A145C C169U U176C the figure was 0.0829; with C82G A111G A120C C150G U176G, 0.00412; with A111G A120C C169G U176C, 0.0183. As for A145G C150G C169U U176C, the reverse-splicing fitness worked out at 0.0454. With C82A A111G A120G A145U C150A the figure was 0.00927; with C82U A111G A145G C169G, 0.00933. With A120U C150A U176G the figure was 0.0831; with C82A A111U A120C A145G C169U U176G, 0.00584; with C82U A120C A145G C150U C169U U176C, 0.0169. With C82A A111U A145G C150G C169G, the reverse-splicing fitness came to 0.00774. For the variant C82A A120G A145G C150G C169G U176A, the reverse-splicing fitness turned out to be 0.0097. In the case of A111G A120G A145G C169U U176A, the reverse-splicing fitness turned out to be 0.0849. C82G A120C A145C C150U C169A U176A: the reverse-splicing fitness worked out at 0.0117. Turning to C82A A111C A120C C150A C169U, the reverse-splicing fitness came to 0.0133. The same measure for C82U A111C A145U C150A C169G U176G: 0.00796. A111U A145C C150A C169A: the reverse-splicing fitness came out at 0.00817. With C82G A120G A145U C150A U176C the figure was 0.0139; with C82U A111U A120C A145U C150U C169A U176G, 0.00505. On to C82A A111G A120G A145C C150U C169G U176C, for which the reverse-splicing fitness turned out to be 0.0123. With C82G A111U A120C A145U C150U C169A U176A the figure was 0.0178; with C82G A111U A145G C169A, 0.0087; with C82G A111C A145G C150G C169A, 0.0091.

For C82G A120G A145G C150U C169G U176C, the reverse-splicing fitness is 0.0245. Take C82G A111C A120G C150G C169G U176A: the reverse-splicing fitness amounted to 0.00677.

Consider A111U A120G A145G C150G U176G, for which the reverse-splicing fitness is 0.00598. With C82A A111U A120U A145U C150U U176A the figure was 0.00828. Take C82G A111G A120U A145G C150G C169U U176C: the reverse-splicing fitness came to 0.009. The same measure for C82A A145G C150U C169G U176C: 0.02.

On to A120U C150G C169A, for which the reverse-splicing fitness amounted to 0.00834. With A111U A120G A145G C150U U176C the figure was 0.0446.

Regarding C82G A111C C150A C169A U176G, the reverse-splicing fitness is 0.00921.

Take C82U A111G A145G C150A C169G U176A: the reverse-splicing fitness is 0.0194.

Regarding C82U A111C A120C C150A C169U U176G, the reverse-splicing fitness is 0.00677.

On to C82A A111G C169G U176A, for which the reverse-splicing fitness amounted to 0.0181. For C82A A111U A120C A145U C150U C169G, the reverse-splicing fitness turned out to be 0.00959. The same measure for C82A A111U A120U A145C C150U U176A: 0.00482.

C82G A111C A120C C150G C169A U176C: the reverse-splicing fitness is 0.0137. Regarding C82U A111C A120G A145G C150A C169G U176C, the reverse-splicing fitness is 0.0241. The same measure for A111G A120C A145G U176C: 0.44. The same measure for A111U A120C A145U C169G: 0.00837. In the case of C82G A111C A145G C169U U176G, the reverse-splicing fitness was found to be 0.00729. As to C82U A111C A120C A145U C150G C169A, the reverse-splicing fitness turned out to be 0.00863. With C82A A111U A145G C169U U176A the figure was 0.0154; with C82A A111G A145C U176C, 0.248; with C82U A111C A145U C150A C169G, 0.00682.

Take C82A C150U U176A: the reverse-splicing fitness turned out to be 0.24. With C82U A111U A120C A145C U176C, the reverse-splicing fitness is 0.0132. The same measure for A111G A120U A145U C150U: 0.584.

Consider C82U A120U A145G C150U C169G, for which the reverse-splicing fitness was determined as 0.00546. Turning to A145U C169G U176A, the reverse-splicing fitness worked out at 0.0717. A111G A120G A145G C169G U176A: the reverse-splicing fitness turned out to be 0.0887.

For C82U A111G A120U A145G, the reverse-splicing fitness was 0.0428. With C82U A111G A120G A145G U176G the figure was 0.00429; with C82G A111U A120G A145U C150U C169A U176A, 0.0149. The same measure for A120C C150A C169U: 0.098. Consider C82U A111U A120G A145U U176C, for which the reverse-splicing fitness was 0.0131.

Regarding A111U A120G A145C C169U, the reverse-splicing fitness stood at 0.151. For the variant A111G A120G A145C C150A U176A, the reverse-splicing fitness came to 0.0131. Regarding C82G A111C A120C A145C C150A C169G U176C, the reverse-splicing fitness came to 0.0215. The same measure for C82U A111U A120C A145C C150A C169A U176A: 0.00878; for A111G A120C A145G C150G: 0.0893.

Take C82A A111U A120C A145C C169G U176G: the reverse-splicing fitness is 0.00816. With C82G A111G C169A U176C, the reverse-splicing fitness is 0.0224. For C82U A120U C150G U176A, the reverse-splicing fitness turned out to be 0.00531. With C82A A111G A120C C150A C169U U176C the figure was 0.0133; with C82G A111C A120G C150A C169A U176A, 0.0179; with C82U A111G A120U A145G C169G, 0.00348.

As for C82A A111G A120C C169A U176A, the reverse-splicing fitness was 0.0173.

Turning to C82U A111U A145G C150G C169G U176A, the reverse-splicing fitness was determined as 0.00984. The same measure for C82U A111U A145G C150G C169G U176G: 0.00579; for C82U A111C A145G C150G C169U: 0.00879; for C82A A111C A120G A145U C169A U176G: 0.00466. With C82G A111U A120U A145U C150A U176G, the reverse-splicing fitness turned out to be 0.00291.

As to C82G A111C A120C A145U C150G C169G U176A, the reverse-splicing fitness came to 0.0088. With C82A A145C C150U C169U U176A the figure was 0.0125; with A111C A120C C150U C169G U176G, 0.00557; with C82G A120G C150U C169A, 0.0193.

The record behind these values is the RNAGym collection of RNA variant scans (doi:10.1093/molbev/msab373).
